Laboratory results reported in paper PMC4814874.

Key:
[1] = target: MART1 peptide on HLA-A*02:01 (human); assay: structural avidity; Jurkat 76/CD8; graded A2/MART1 multimer; full-length, on cells
[2] = target: MART1 peptide on HLA-A*02:01 (human); assay: IL-2 ELISPOT; Jurkat 76 without CD8; T2 + graded peptide; full-length, on cells
[3] = target: MART1 peptide on HLA-A*02:01 (human); assay: IL-2 ELISPOT; Jurkat 76/CD8; T2 + graded peptide; full-length, on cells
[4] = target: MART1 peptide on HLA-A*02:01 (human); assay: structural avidity; Jurkat 76 without CD8; graded A2/MART1 multimer; full-length, on cells

With DMF5 as the substance, how does the EC50 of multimer [1] read?
The EC50 of multimer was 0.013 µg/mL.

What about the EC50 of peptide [2] of the same substance?
Its EC50 of peptide is 0.363 µg/mL.

What about the EC50 of peptide [3] of the same substance?
The EC50 of peptide was 0.102 µg/mL.

And the EC50 of multimer [4]?
The EC50 of multimer was 0.022 µg/mL.
